Experimental findings from US20190300618A1 (Merck Sharp & Dohme, published 2019) are described below.

What all share (test): flow cytometry, CHO-K1; sub-column 1 of 2
(In general: In flow cytometry, cells or beads pass a laser one at a time.)

One assay addresses T1, F28A.
T1 construct: also called hCD27 F28A
T1 receptor: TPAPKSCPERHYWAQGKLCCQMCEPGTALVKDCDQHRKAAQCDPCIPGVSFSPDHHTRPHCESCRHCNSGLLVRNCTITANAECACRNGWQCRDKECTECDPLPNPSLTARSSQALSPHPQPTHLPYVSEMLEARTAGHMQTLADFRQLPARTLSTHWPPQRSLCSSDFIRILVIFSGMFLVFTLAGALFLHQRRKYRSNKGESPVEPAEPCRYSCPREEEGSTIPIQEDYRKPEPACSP

The target in another assay is T2, R87A.
T2 construct: also called hCD27 R87A
T2 receptor: T1 receptor with A28F, R87A

In a further assay the target is T3, Q41A.
T3 construct: also called hCD27 Q41A
T3 receptor: T1 receptor with A28F, Q41A

In another assay the target is T4, K38A.
T4 construct: also called hCD27 K38A
T4 receptor: T1 receptor with A28F, K38A

The next assay deals with T5, W90A.
T5 construct: also called hCD27 W90A
T5 receptor: T1 receptor with A28F, W90A

The target of a further assay is T6, Q91A.
T6 construct: also called hCD27 Q91A
T6 receptor: T1 receptor with A28F, Q91A

For a further assay, the target named is T7, V49A.
T7 construct: also called hCD27 V49A
T7 receptor: T1 receptor with A28F, V49A

The target of another assay is T8, E9A.
T8 construct: also called hCD27 E9A
T8 receptor: T1 receptor with E9A, A28F

The next assay addresses T9, K17A.
T9 construct: also called hCD27 K17A
T9 receptor: T1 receptor with K17A, A28F

In a further assay the target is T10, I46A.
T10 construct: also called hCD27 I46A
T10 receptor: T1 receptor with A28F, I46A

Numbering of substitutions follows the chain as printed.

In the case of 1A4 (mouse IgG1) (antibody), the % of WT hCD27 binding (geo mean FITC) amounted to 113% in the assay with F28A; 143% in the assay with R87A; 106% with Q41A; 104% with K38A; 123% in the assay with W90A; 146% with Q91A. The % of WT hCD27 binding (geo mean FITC) in the assay with V49A was 144%; in the assay with E9A, 98.2%; with K17A it was 32.4%; in the assay with I46A, 129%.
Turning to 9F4 (mouse IgG2a) (antibody), the % of WT hCD27 binding (geo mean FITC) worked out at 115% with F28A; 153% with R87A; 113% with Q41A; 44.7% in the assay with K38A; 130% in the assay with W90A; 149% in the assay with Q91A. Moreover, the % of WT hCD27 binding (geo mean FITC) with V49A came to 151%; with E9A, 96.6%; in the assay with K17A, 98%; in the assay with I46A it was 137%.

B1: Antibody hCD27.131A (mouse parental 131A) (antibody, V domains shown)
VH: QIQLVQSGPELKKPGETVKISCKASGYTFTNYGMNWVKQAPGKGLKWMGWINTNTGEPTYAEEFKGRFAFSLETSATTAYLQINNLKNEDTATYFCAREGDAMDYWGQGTSVTVSS
VL: QIVLTQSPAIMSASPGEKVTMTCSASSSVSYMHWYQQKSGTSPKRWIYDTSKLASGVPARFSGSGSGTSYSLTISSMEAEDAATYYCQQWNSYPFTFGSGTKLEIK
notes: mouse IgG1; also called mouse hCD27.131A
Turning to B1, the “% of WT hCD27 binding (geo mean FITC)” value in the assay with F28A was 106%; in the assay with R87A it was 153%; with Q41A, 108%; with K38A it was 48.2%; with W90A, 126%; with Q91A it was 148%. Also, the “% of WT hCD27 binding (geo mean FITC)” value with V49A was 147%; with E9A, 96.7%; with K17A, 103%; with I46A, 132%.
